Experimental data taken from article PMC11457862.
Changes are numbered by the printed parent chain. Names and notes keep the numbering of the source.

T1: biotinylated human IL-2Rβ ectodomain (amino acids 1-214) (human) (UniProt P14784)
T1 sequence (chain, biotin on the biotin acceptor peptide (BirA ligase)): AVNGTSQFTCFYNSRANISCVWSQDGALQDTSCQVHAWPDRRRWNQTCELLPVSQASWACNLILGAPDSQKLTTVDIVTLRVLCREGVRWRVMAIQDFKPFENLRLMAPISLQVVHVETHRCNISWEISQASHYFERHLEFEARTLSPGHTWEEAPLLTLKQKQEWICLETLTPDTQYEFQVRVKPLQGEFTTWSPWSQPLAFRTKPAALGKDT

B1: yeast-displayed 602 scFv T101S; F225S; G227D (protein)
chain 1: EVQLQESGPGLVAPSQSLSITCTVSGFSLTNYDISWIRQPPGKGLEWLGVIWTGGGTNYNSGFMSRLSITKDNSKSQVFLKMNSLQTDDTAIYYCVRQGRSPYWGQGTLVTVSA
chain 2: DIQVTQSPSSLSVSLGDRVTITCKASKDIYNRLAWYQQKPGNAPRLLISGATSLETGVPSRFSGSGSGKDYTLTITSLQTEDVATYYCQQSWDTPYTFGGGTKLEIK
B2: anti-human IL-2 antibody 602 (MAB602), recombinant mouse IgG2a kappa (antibody, V domains shown)
VH: B1 chain 1 with S101T
VL: B1 chain 2 with S91F, D93G

Tests used:
[1] = biological target: human IL-2 (amino acids 1-133), soluble, P60568; assay: yeast display competition (IL-2 binding in the presence of soluble IL-2Rα competitor); conditions: chain shown with the change; IL-2 5 nM; IC50 is the concentration of soluble IL-2Rα competitor (Dm27)
[2] = biological target: human IL-2 (amino acids 1-133), soluble, P60568; assay: yeast display titration; conditions: chain shown with the change
[3] = biological target: biotinylated human IL-2Rα ectodomain (amino acids 1-217) (human); assay: BLI; same set-up as a1; equilibrium titration of the response at the end of the association phase, first-order fit (Figures 2 and 3, Supplemental Table 1)
[4] = biological target: T1, biotinylated human IL-2Rβ ectodomain (amino acids 1-214) (human); assay: as above
[5] = biological target: T1, biotinylated human IL-2Rβ ectodomain (amino acids 1-214) (human); assay: BLI; same set-up as a3; equilibrium titration, first-order fit (Supplemental Figure 4A-C, Supplemental Table 4)

Row | Binder | IC50 [1] [nM] | EC50 [2] [nM] | Kd [3] [nM] | Kd [4] [nM] | Kd [5] [nM]
1 | B1 | 1120 | 0.4 | – | – | –
2 | B2 | – | – | > 2000 | > 2000 | > 2000
